The values below come from paper PMC8490722 (Frontiers in Immunology, 2021).

The assay addresses T1, SARS-CoV S1 subunit (SARS-CoV WH20 (AAX16192.1), UniProt Q5DIC5).
T1 construct: source: bought: Sino Biological
Put plainly: western blotting. The note with it: one partner purified. On the technique in general: Immunoblotting shows a protein as a band on a membrane.

B1: mAb 12C10 (antibody, V domains shown)
VH: EVKLQESGGGLVKPGGSLKLSCAASGFTFSNYSMSWVRQTPEKRLEWVATISNGGGYIYYLDSVKGRFTISRDNAKNTLYLQMSSLRSEDTAMYYCGRPRPEKEFISTSTAMDHWGQGTTVT
VL: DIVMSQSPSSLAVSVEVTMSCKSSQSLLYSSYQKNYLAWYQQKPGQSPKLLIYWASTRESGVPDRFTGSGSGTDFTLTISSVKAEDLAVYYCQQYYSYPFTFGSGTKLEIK
notes: also called anti-R405; source: mouse hybridoma; supernatants or ascites fluid
Consider B1, for which the binding result was “binds”.
